{
  "source": "paper PMC7822889",
  "biological_target": "SpyCatcher003-mi3 VLP",
  "note": "Where “and” joins values, the source holds several entries; their conditions need not be identical. Equal values may be shown once.",
  "data": [
    {"substance": "SpyTag-RBD (from UniProt P0DTC2 331-529) (domain or fragment)", "values": [
      {"measurement": "display efficiency", "value": 93, "unit": "%"},
      {"measurement": "display efficiency (1:1 molar ratio)", "value": 64, "unit": "%"},
      {"measurement": "stoichiometry N", "value": "56 RBDs per VLP and 38 RBD per VLP"}
    ]}
  ]
}
